Laboratory results from US20150044237A1 (CENTRE NATIONAL DE LA RECHERCHE SCIENTIFIQUE, published 2015).

Legend:
[1] = molecular target: T1, Fas (CD95/APO-1) on Jurkat cells (human, UniProt P25445 26-335); assay: cell-based or functional assay
T1 sequence (looked up): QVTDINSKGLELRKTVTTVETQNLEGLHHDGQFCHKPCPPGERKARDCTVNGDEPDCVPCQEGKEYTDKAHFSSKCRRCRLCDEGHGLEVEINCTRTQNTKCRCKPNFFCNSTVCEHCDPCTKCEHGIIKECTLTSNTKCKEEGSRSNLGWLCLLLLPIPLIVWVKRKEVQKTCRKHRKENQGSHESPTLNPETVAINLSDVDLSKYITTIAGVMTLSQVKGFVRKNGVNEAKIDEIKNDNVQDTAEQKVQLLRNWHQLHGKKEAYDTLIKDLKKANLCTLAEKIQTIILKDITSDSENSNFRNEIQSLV

[2] = molecular target: T2, CD28 on human cells (human, UniProt P10747 19-220); assay: inferred from inhibition of cell death by anti-CD28 blocking antibody on JKCD28high cells
T2 construct: whole, on cells; also called CD28 receptor
Procedure: FIG. 14: Effect of the pFasL and CD80-pFasL chimeras on the JKCD28low, JKCD28high and JKCD28delta cell lines. Panel A: membrane expression of Fas and CD28 on the three cell lines. The cells were stained with the indicated antibodies, or with an isotype-matched negative control antibody (shaded histograms) then analysed by flow cytometry. Panel B: the apoptotic activity of the pFasL and CD80-pFasL chimeras was tested against the three cell lines (JKCD28 low: empty triangles; JKCD28high: filled triangles; JKCD28delta: squares) at a range of concentrations, measured in the FasL ELISA. Cell death was estimated by the MTT viability assay. Mean and sd from three distinct experiments. Panel C: the pFasL and CD80-pFasL chimeras were used at a non-saturating concentration that triggers a suboptimal cell death. The JKCD28low and JKCD28high cell lines were pre-incubated without (no antibody) or with an isotype-matched control antibody at 10 μg/mL or with the CD28.2 clone of anti-CD28 blocking antibody at 10, 3 or 1 μg/mL. Cell death was measured using the MTT cell viability assay. Mean and sd from three distinct experiments.
To analyse this possibility, the inventors conducted experiments where CD28 was blocked using a neutralising antibody. […]

B1: CD80-pFasL (other)
chain: VIHVTKEVKEVATLSCGHNVSVEELAQTRIYWQKEKKMVLTMMSGDMNIWPEYKNRTIFDITNNLSIVILALRPSDEGTYECVVLKYEKDAFKREHLAEVTLSVKADFPTPSISDFEIPTSNIRRIICSTSGGFPEPHLSWLENGEELNAINTTVSQDPETELYAVSSKLDFNMTTNHSFMCLIKYGHLRVNQTFNWNTTKQEHFPSSIPDSQTKVFPQDKVILVGSDITFCCVSQEKVLSALIGHTNCPLIHLDGENVAIKIRNISVSASSGTNVVFTTEDNIFGTVISRALQKELAELRESTSQMHTASSLEKQIGHPSPPPEKKELRKVAHLTGKSNSRSMPLEWEDTYGIVLLSGVKYKKGGLVINETGLYFVYSKVYFRGQSCNNLPLSHKVYMRNSKYPQDLVMMEGKMMSYCTTGQMWARSSYLGAVFNLTSADHLYVNVSELSLVNFEESQTFFGLYKL
notes: Polymeric, produced in HEK 293T cells; also called CD80IgFasL; CD80-IgFasL polymeric chimera
C50 against pFasL, JKCD28delta cell line [1]: 10 fold increase against pFasL
C50 against pFasL, JKCD28high cell line [1]: 2.5 fold decrease against pFasL
C50 against pFasL, JKCD28low cell line [1]: 17 fold decrease against pFasL
binding result [2]: binds
